This note sets out measurements from publication PMC13463089, “PA200 modulates immunoproteasome structure and activity” (Nature Communications, 2026).

In assay [1] the target is T1, i20S (20S immunoproteasome), beta5i site (Homo sapiens, UniProt P28062).
T1 construct: gene PSMB8; with Proteasome subunit beta type-9; Proteasome subunit beta type-10; Proteasome subunit alpha type-6; Proteasome subunit alpha type-2; Proteasome subunit alpha type-4; Proteasome subunit alpha type-7; Proteasome subunit alpha type-5; Proteasome subunit alpha type-1; Proteasome subunit alpha type-3; Proteasome subunit beta type-3; Proteasome subunit beta type-2; Proteasome subunit beta type-1; Proteasome subunit beta type-4
T1 sequence (P28062 73-276): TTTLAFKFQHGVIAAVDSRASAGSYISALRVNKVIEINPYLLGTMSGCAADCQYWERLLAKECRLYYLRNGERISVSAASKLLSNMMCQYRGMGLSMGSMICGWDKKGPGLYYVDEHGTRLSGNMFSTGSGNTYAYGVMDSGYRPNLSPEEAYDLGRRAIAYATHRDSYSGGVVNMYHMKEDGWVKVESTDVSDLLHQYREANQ
In words: fluorogenic AMC release. Format: biochemical. The note with it: chymotrypsin-like (beta5i) site; 200 uM substrate, 1.5 nM 20S, pH 7.6, 37 C.

Assay [2] has as its target T2, s20S (standard 20S proteasome), beta5 site (Homo sapiens, UniProt P28074).
T2 construct: gene PSMB5; with Proteasome subunit beta type-6; Proteasome subunit beta type-7; Proteasome subunit alpha type-6; Proteasome subunit alpha type-2; Proteasome subunit alpha type-4; Proteasome subunit alpha type-7; Proteasome subunit alpha type-5; Proteasome subunit alpha type-1; Proteasome subunit alpha type-3; Proteasome subunit beta type-3; Proteasome subunit beta type-2; Proteasome subunit beta type-1; Proteasome subunit beta type-4
T2 sequence (P28074 60-263): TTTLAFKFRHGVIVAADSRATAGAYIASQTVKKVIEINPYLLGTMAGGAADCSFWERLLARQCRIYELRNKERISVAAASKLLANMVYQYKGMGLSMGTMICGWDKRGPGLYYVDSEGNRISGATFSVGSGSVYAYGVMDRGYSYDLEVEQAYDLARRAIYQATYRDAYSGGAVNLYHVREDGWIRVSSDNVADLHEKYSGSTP
In words: fluorogenic AMC release. The class given is biochemical. Particulars: chymotrypsin-like (beta5) site; 200 uM substrate, 1.5 nM 20S, pH 7.6, 37 C.

Assay [3] addresses human i20S purified from HEK293-EBNA cells (human) (UniProt P60900). In words: mass photometry; 20S at 120 nM titrated with PA200 (PA200:20S molar ratios from 0 to 15), Tris 50 mM pH 7.6, 2 h on ice, diluted six times to 20 nM 20S immediately before measurement; apparent KD from counts of free, singly- and doubly-capped 20S.
Assay [4] addresses human standard 20S proteasome (s20S) purchased from Enzo (human) (UniProt P60900). Described as above.
In assay [5] the target is T3, recombinantly expressed and purified human PA200 (human), Q14997.
T3 chain: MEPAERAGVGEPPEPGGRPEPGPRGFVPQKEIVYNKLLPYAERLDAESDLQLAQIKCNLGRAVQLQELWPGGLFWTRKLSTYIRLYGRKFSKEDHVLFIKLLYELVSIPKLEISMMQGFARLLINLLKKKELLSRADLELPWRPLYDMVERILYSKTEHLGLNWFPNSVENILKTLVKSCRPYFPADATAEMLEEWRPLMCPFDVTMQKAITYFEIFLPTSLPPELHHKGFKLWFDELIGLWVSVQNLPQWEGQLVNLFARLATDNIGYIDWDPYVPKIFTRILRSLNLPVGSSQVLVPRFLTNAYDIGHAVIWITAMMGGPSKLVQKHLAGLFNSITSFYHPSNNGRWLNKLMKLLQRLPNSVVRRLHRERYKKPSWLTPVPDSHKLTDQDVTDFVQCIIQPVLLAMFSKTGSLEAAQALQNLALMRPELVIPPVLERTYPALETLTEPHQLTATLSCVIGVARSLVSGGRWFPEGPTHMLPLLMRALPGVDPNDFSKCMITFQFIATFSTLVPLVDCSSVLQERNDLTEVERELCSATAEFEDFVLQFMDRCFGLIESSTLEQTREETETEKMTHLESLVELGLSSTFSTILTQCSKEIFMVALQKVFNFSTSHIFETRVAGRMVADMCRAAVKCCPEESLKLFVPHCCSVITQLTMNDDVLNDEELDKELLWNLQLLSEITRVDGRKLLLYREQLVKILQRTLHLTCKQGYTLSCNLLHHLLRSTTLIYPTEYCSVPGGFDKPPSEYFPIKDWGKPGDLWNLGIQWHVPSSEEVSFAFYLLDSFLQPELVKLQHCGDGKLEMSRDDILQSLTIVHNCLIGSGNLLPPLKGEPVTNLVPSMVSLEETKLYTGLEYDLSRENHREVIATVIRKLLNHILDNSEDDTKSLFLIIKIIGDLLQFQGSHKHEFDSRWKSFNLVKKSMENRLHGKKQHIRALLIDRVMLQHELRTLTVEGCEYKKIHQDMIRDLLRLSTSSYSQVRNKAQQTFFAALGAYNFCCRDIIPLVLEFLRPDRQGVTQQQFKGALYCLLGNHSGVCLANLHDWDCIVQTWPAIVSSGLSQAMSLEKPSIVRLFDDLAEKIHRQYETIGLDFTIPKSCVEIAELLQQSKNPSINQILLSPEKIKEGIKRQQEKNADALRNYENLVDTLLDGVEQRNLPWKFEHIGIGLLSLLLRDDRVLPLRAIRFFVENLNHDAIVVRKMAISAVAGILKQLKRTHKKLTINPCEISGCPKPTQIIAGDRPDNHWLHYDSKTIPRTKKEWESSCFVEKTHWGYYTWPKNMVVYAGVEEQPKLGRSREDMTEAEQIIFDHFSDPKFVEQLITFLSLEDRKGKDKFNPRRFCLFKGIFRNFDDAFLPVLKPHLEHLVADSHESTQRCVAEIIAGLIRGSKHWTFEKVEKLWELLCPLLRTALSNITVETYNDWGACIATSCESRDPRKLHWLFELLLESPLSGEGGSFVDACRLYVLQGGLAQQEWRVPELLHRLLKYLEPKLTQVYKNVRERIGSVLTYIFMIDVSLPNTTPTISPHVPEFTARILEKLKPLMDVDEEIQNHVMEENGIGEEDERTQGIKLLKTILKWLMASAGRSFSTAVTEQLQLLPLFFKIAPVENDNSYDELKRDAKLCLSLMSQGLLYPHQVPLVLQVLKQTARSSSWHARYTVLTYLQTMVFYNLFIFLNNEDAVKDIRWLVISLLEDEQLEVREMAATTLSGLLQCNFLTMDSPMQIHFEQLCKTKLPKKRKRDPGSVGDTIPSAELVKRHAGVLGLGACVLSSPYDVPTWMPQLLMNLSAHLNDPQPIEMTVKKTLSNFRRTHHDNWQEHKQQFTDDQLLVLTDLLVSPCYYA
Described as above. Particulars: remark: other sources report otherwise.

Numbered stars: 1 amine (or outer) side, 2 acyl side, 3 side chain; on linkers, the order of the positions; unused ones are H or OH. Peptide text beside a SMILES is read from it. * marks the point of attachment. AMC = Cc1cc(=O)oc2cc(N*)ccc12; Suc = O=C(CCC(=O)[*:2])[*:1]

Take `Cc1cc(=O)oc2cc(NC(=O)[C@H](Cc3ccc(O)cc3)NC(=O)[C@@H](NC(=O)[C@H](CC(C)C)NC(=O)[C@H](CC(C)C)NC(=O)CCC(=O)O)C(C)C)ccc12` [Suc-LLVY-AMC] (Suc-LLVY-{AMC}): the “fluorogenic AMC release” value in assay [1] was “the baseline CT-L and T-L activities of the i20S and s20S were similar”; in assay [2], “the baseline CT-L and T-L activities of the i20S and s20S were similar”.
For the molecule “recombinantly expressed and purified human PA200 (from UniProt Q14997 1-1843) (natural protein)”, in assay [3], the apparent KD of the first PA200 binding event is 0.04 µM and the apparent KD of the second PA200 binding event is 0.15 µM. Moreover, in assay [4], the apparent KD of the first PA200 binding event was determined as 0.04 µM and the apparent KD of the second PA200 binding event amounted to 0.15 µM.

B1: recombinantly expressed and purified human PA200, Q14997 1-1843 (natural protein)
chain: T3 chain
Regarding B1, the stoichiometry N (as a rule, the number of molecules, sites or subunits per partner or assembly) in assay [5] was 2.
